In the supplement of paper PMC10567573:

B1: RHOBTB3 (parent)
chain: STTEGIQLAKELGATYLELHSLDD
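Note: lentivirally expressed fusions sorted by FACS into six bins by GFP to DsRed ratio, PSI derived from sequencing read proportions per bin multiplied by bin number.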

Variants of: B1
Assay: protein stability index of a GFP-peptide fusion (GPS, HEK-293T) (PSI 1-6); higher = more stable
Conditions: c terminus: a fixed tail appended
For STTEGIQLAKEVGATYLELHSLDD [L12V], the protein stability index was 4.43.
For STTEGIQLAKEAGATYLELHSLDD [L12A], the protein stability index was 5.
Variant STTEGIQLAKENGATYLELHSLDD [L12N] has a protein stability index of 4.77.
STTEGIQLAKESGATYLELHSLDD [L12S] gave a protein stability index of 4.92.
In the case of STTEGIQLAKETGATYLELHSLDD [L12T], the protein stability index is reported as 4.88.
In the case of STTEGWQLAKELGATYLELHSLDD [I6W], the protein stability index is reported as 2.7.
Work on STTEGIQLAKELGATYLELYSLDD [H20Y] yielded a protein stability index of 2.44.
Variant STTEGIQLAKELGATYLELASLDD [H20A] has a protein stability index of 2.73.
Variant STTEGIQLAKELGATYLELFSLDD [H20F] has a protein stability index of 2.75.
STTEGIQLAKELGATYLELQSLDD [H20Q] showed a protein stability index of 3.13.
STTEGIQLAKELGATYLELESLDD [H20E] gave a protein stability index of 3.45.
STTEGIQLHKELGATYLELHSLDD [A9H] showed a protein stability index of 4.38.
STTEGIQLWKELGATYLELHSLDD [A9W] showed a protein stability index of 2.64.
With STTEGIQLNKELGATYLELHSLDD [A9N] the protein stability index was 4.06.
Work on STTEGIQLVKELGATYLELHSLDD [A9V] yielded a protein stability index of 2.53.
For STTEGIQLCKELGATYLELHSLDD [A9C], the protein stability index was 3.08.
STTEGIQLAKELGATYLEMHSLDD [L19M] gave a protein stability index of 4.38.
In the case of STTEGIQLAKELGATYLEFHSLDD [L19F], the protein stability index is reported as 4.21.
STTEGIQLAKELGATYLVLHSLDD [E18V] showed a protein stability index of 2.38.
STTEGIQLAKELGATYLFLHSLDD [E18F] showed a protein stability index of 2.
With STTEGIQLAKELGATYLRLHSLDD [E18R] the protein stability index was 2.96.
Variant STTEGIQLAKELGATYLALHSLDD [E18A] has a protein stability index of 3.22.
Work on STTEGIQLAKELGATYLHLHSLDD [E18H] yielded a protein stability index of 3.07.
STTEGIQLAKELGATYLKLHSLDD [E18K] gave a protein stability index of 3.2.
For STTEGIQLAKELGATYLQLHSLDD [E18Q], the protein stability index was 3.39.
With STTEGIQLAKELGATYLPLHSLDD [E18P] the protein stability index was 3.97.
Variant DTTEGIQLAKELGATYLELHSLDD [S1D] has a protein stability index of 4.37.
HTTEGIQLAKELGATYLELHSLDD [S1H] gave a protein stability index of 2.81.
In the case of STTEGIQLAKELGATYLELHTLDD [S21T], the protein stability index is reported as 3.79.
STTEGIQLAKELGATYLELHDLDD [S21D] gave a protein stability index of 4.49.
Work on STTEGIQLAKELGATYLELHPLDD [S21P] yielded a protein stability index of 4.06.
Variant STTEGIQLAKELGATYLELHYLDD [S21Y] has a protein stability index of 1.59.
STTEGIQLAKELGATYLELHNLDD [S21N] showed a protein stability index of 4.
STTEGIQLAKELGATYAELHSLDD [L17A] showed a protein stability index of 5.04.
STTEGIQLAKELGATYPELHSLDD [L17P] showed a protein stability index of 4.88.
Variant STTPGIQLAKELGATYLELHSLDD [E4P] has a protein stability index of 3.65.
For STTDGIQLAKELGATYLELHSLDD [E4D], the protein stability index was 3.44.
With STTAGIQLAKELGATYLELHSLDD [E4A] the protein stability index was 3.66.
Variant STTLGIQLAKELGATYLELHSLDD [E4L] has a protein stability index of 1.83.
Variant STTEGIQYAKELGATYLELHSLDD [L8Y] has a protein stability index of 4.97.
Variant STTEGIQIAKELGATYLELHSLDD [L8I] has a protein stability index of 4.41.
With STTEGIQMAKELGATYLELHSLDD [L8M] the protein stability index was 4.11.
In the case of STTEGIQNAKELGATYLELHSLDD [L8N], the protein stability index is reported as 4.57.
With STTEGIQRAKELGATYLELHSLDD [L8R] the protein stability index was 4.41.
In the case of STVEGIQLAKELGATYLELHSLDD [T3V], the protein stability index is reported as 3.19.
With STREGIQLAKELGATYLELHSLDD [T3R] the protein stability index was 3.03.
STCEGIQLAKELGATYLELHSLDD [T3C] showed a protein stability index of 2.22.
In the case of STAEGIQLAKELGATYLELHSLDD [T3A], the protein stability index is reported as 2.94.
Variant STLEGIQLAKELGATYLELHSLDD [T3L] has a protein stability index of 2.37.
STGEGIQLAKELGATYLELHSLDD [T3G] gave a protein stability index of 4.01.
Work on STIEGIQLAKELGATYLELHSLDD [T3I] yielded a protein stability index of 2.73.
Variant STTEGIQLAKELGHTYLELHSLDD [A14H] has a protein stability index of 4.1.
STTEGIQLAKELGNTYLELHSLDD [A14N] gave a protein stability index of 3.59.
STTEGIQLAKELGTTYLELHSLDD [A14T] gave a protein stability index of 4.18.
STTEGIQLAKELGAKYLELHSLDD [T15K] gave a protein stability index of 4.33.
Work on STTEGIQLAKELGASYLELHSLDD [T15S] yielded a protein stability index of 3.71.
With STTEGIQLAKELGAHYLELHSLDD [T15H] the protein stability index was 2.69.
STTEGIQLAKELGARYLELHSLDD [T15R] gave a protein stability index of 3.83.
In the case of STTEGIQLAKELGAPYLELHSLDD [T15P], the protein stability index is reported as 3.37.
For STTEGIQLAKELGAYYLELHSLDD [T15Y], the protein stability index was 3.49.
With STTEGIQLAKELGAIYLELHSLDD [T15I] the protein stability index was 1.99.
For STTEGIQLANELGATYLELHSLDD [K10N], the protein stability index was 2.84.
Variant STTEGIQLAHELGATYLELHSLDD [K10H] has a protein stability index of 3.15.
For STTEGIQLAVELGATYLELHSLDD [K10V], the protein stability index was 2.06.
In the case of SETEGIQLAKELGATYLELHSLDD [T2E], the protein stability index is reported as 4.33.
SPTEGIQLAKELGATYLELHSLDD [T2P] gave a protein stability index of 4.02.
With SMTEGIQLAKELGATYLELHSLDD [T2M] the protein stability index was 2.8.
In the case of SGTEGIQLAKELGATYLELHSLDD [T2G], the protein stability index is reported as 2.54.
With STTEGIQLAKELGATYLELHSQDD [L22Q] the protein stability index was 4.91.
For STTEGIQLAKELGATYLELHSADD [L22A], the protein stability index was 4.99.
For STTEGIQLAKELGATYLELHSWDD [L22W], the protein stability index was 3.45.
With STTEGIQLAKELGATYLELHSVDD [L22V] the protein stability index was 4.3.
STTEGIQLAKELGATYLELHSMDD [L22M] gave a protein stability index of 4.32.
In the case of STTEGIQLAKELGATYLELHSSDD [L22S], the protein stability index is reported as 4.47.
Variant STTEGIQLAKELGATRLELHSLDD [Y16R] has a protein stability index of 4.18.
STTEGIQLAKELGATFLELHSLDD [Y16F] gave a protein stability index of 3.27.
STTEGIQLAKELGATNLELHSLDD [Y16N] gave a protein stability index of 5.25.
Variant STTEGIQLAKELGATYLELHSLDT [D24T] has a protein stability index of 2.05.
For STTEGIQLAKELGATYLELHSLDI [D24I], the protein stability index was 2.7.
For STTEGIQLAKELGATYLELHSLDP [D24P], the protein stability index was 3.16.
For STTEGIQLAKELGATYLELHSLDM [D24M], the protein stability index was 1.38.
Work on STTEGIQLAKELGATYLELHSLDH [D24H] yielded a protein stability index of 2.44.
Work on STTEGIQLAKELGATYLELHSLDN [D24N] yielded a protein stability index of 2.16.
In the case of STTEGIQLAKELGATYLELHSLLD [D23L], the protein stability index is reported as 2.21.
For STTEGIQLAKELGATYLELHSLID [D23I], the protein stability index was 2.07.
With STTEGIQLAKCLGATYLELHSLDD [E11C] the protein stability index was 3.42.
STTEGIQLAKYLGATYLELHSLDD [E11Y] gave a protein stability index of 2.88.
STTEGIQLAKMLGATYLELHSLDD [E11M] gave a protein stability index of 3.19.
Variant STTEGIQLAKDLGATYLELHSLDD [E11D] has a protein stability index of 4.01.
In the case of STTEDIQLAKELGATYLELHSLDD [G5D], the protein stability index is reported as 2.49.
For STTEWIQLAKELGATYLELHSLDD [G5W], the protein stability index was 1.56.
Work on STTEGIQLAKELWATYLELHSLDD [G13W] yielded a protein stability index of 1.39.
Work on STTEGIQLAKELHATYLELHSLDD [G13H] yielded a protein stability index of 2.09.
Work on STTEGIQLAKELIATYLELHSLDD [G13I] yielded a protein stability index of 2.79.
